± gives the standard deviation of the averaged measurements.
test system: ATP; test: switch fluorescence ratio, 500 uM ATP over buffer (Cy3 cluster intensity, sum of 5 cycles each) (fold (ratio)); higher = stronger signal-on switching upon ATP binding; sequences stand for … in TCGTCGGCAGCGTCAGATGTGTATAAGAGACAGTTTTTTTTTTTTTTTTTTTTTTTTT…TC; details: aptamer strand: ATP DNA aptamer (quencher-CACCTGGGGGAGTATTGCGGAGGAAGG + anchor), 100 nM annealed; ATP concentration: 500 uM
Outline: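 Between each of five buffer/ATP cycles, the flow-cell was stripped with NaOH and re-annealed. Each cycle imaged Cy3-labelled switching-strand clusters, annealed to 100 nM quencher-labelled ATP aptamer on a modified Illumina MiSeq flow-cell, first in selection buffer and then after 15 min with 500 uM ATP at 22 °C. The fluorescence ratio is summed target-cycle over summed buffer-cycle Cy3 intensity per cluster, averaged per switch-domain sequence, with clusters outside 100-1000 RFU excluded.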
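Note: ATP exposure 15 min at 22 °C before imaging.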

Sequence | switch fluorescence ratio
GGGAATTCGA | 1 ± 0.036
GGGACAATGA | 1 ± 0.038
GGGACAGGGA | 1.05 ± 0.066
GGGACAGTGG | 1 ± 0.015
GGGACATTTT | 1.026 ± 0.0086
GGGACCGAAC | 1.13 ± 0.029
GGGACCGACT | 1.05 ± 0.016
GGGACCGTGC | 1.07 ± 0.096
GGGACCGTGT | 1.01 ± 0.028
GGGACGGAAC | 1.12 ± 0.03
GGGACGGGGA | 0.978 ± 0.026
GGGACTCGTG | 1.04 ± 0.053
GGGACTGGGT | 0.999 ± 0.012
GGGACTTTCT | 1.01 ± 0.0092
GGGAGAAAGG | 1.011 ± 0.0067
GGGAGAACGA | 0.984 ± 0.015
GGGAGAAGGA | 1.05 ± 0.085
GGGAGAAGGT | 0.967 ± 0.011
GGGAGAGCGT | 0.966 ± 0.018
GGGAGAGGGT | 1.02 ± 0.016
GGGAGAGTGG | 0.9868 ± 0.0015
GGGAGATATG | 0.9788 ± 0.0095
GGGAGATTAA | 0.975 ± 0.013
GGGAGATTTT | 1.01 ± 0.035
GGGAGCATCG | 0.9709 ± 0.0055

Sequence | switch fluorescence ratio
GGGAGCGCTT | 1.03 ± 0.012
GGGAGGAGAC | 1.02 ± 0.053
GGGAGGCAGA | 0.989 ± 0.065
GGGAGGGAAA | 1.04 ± 0.056
GGGAGGGGG | 0.965 ± 0.045
GGGAGGGTTT | 0.98 ± 0.022
GGGAGGTAGG | 0.991 ± 0.01
GGGAGGTGGG | 1.009 ± 0.0014
GGGAGTAAAG | 0.989 ± 0.013
GGGAGTAAGG | 1.024 ± 0.0025
GGGAGTCAGC | 1.012 ± 0.008
GGGAGTCTTC | 1.04 ± 0.1
GGGAGTGGCA | 1.08 ± 0.15
GGGAGTTAAA | 0.972 ± 0.013
GGGAGTTGG | 0.992 ± 0.017
GGGAGTTGGG | 1.02 ± 0.044
GGGATAACAG | 1.04 ± 0.011
GGGATAAGCC | 1 ± 0.012
GGGATAAGTT | 0.983 ± 0.035
GGGATAGATA | 1.03 ± 0.022
GGGATAGGAA | 0.993 ± 0.03
GGGATAGGCC | 1.02 ± 0.032
GGGATAGGGG | 0.996 ± 0.024
GGGATAGTGC | 1.01 ± 0.021
GGGATATCAG | 0.994 ± 0.017

Sequence | switch fluorescence ratio
GGGATATCAT | 0.9903 ± 0.0048
GGGATCAAGA | 0.998 ± 0.023
GGGATCAGTA | 0.9602 ± 0.0055
GGGATCGTTT | 0.982 ± 0.046
GGGATGAACG | 1.04 ± 0.021
GGGATGGCAT | 0.995 ± 0.034
GGGATGGCCT | 0.959 ± 0.011
GGGATGTGCG | 1.04 ± 0.027
GGGATTAAGG | 0.999 ± 0.021
GGGATTCCGT | 1.05 ± 0.042
GGGATTGCGG | 1.12 ± 0.23
GGGATTGGGT | 1.01 ± 0.021
GGGATTTATA | 0.995 ± 0.019
GGGATTTGGT | 1.02 ± 0.02
GGGATTTTGC | 0.952 ± 0.015
GGGCAAGGTC | 1.03 ± 0.034
GGGCAAGGTG | 1.21 ± 0.12
GGGCAATATG | 1.17 ± 0.06
GGGCACATCC | 1.02 ± 0.025
GGGCACCAGG | 1.21 ± 0.03
GGGCAGCCTT | 0.99337 ± 0.0002
GGGCAGGGGA | 1.17 ± 0.35
GGGCAGTAGG | 1 ± 0.025
GGGCAGTTCG | 1.02 ± 0.027
GGGCATGAAG | 1.016 ± 0.0066

Sequence | switch fluorescence ratio
GGGCATGTCT | 1.03 ± 0.042
GGGCATTGCT | 0.9747 ± 0.0069
GGGCCAGGGA | 1 ± 0.024
GGGCCAGTAT | 0.963 ± 0.017
GGGCCATCGT | 0.993 ± 0.026
GGGCCCAAAG | 1 ± 0.021
GGGCCCGAAT | 0.992 ± 0.047
GGGCCCGCGT | 0.98 ± 0.011
GGGCCCTTCG | 1.018 ± 0.0047
GGGCCGGAAA | 1.01 ± 0.049
GGGCCGGGGT | 0.993 ± 0.04
GGGCCGTAGG | 0.99 ± 0.037
GGGCCGTTGG | 0.976 ± 0.042
GGGCCTCGGA | 0.988 ± 0.042
GGGCGAGAGG | 1.02 ± 0.033
GGGCGAGCCT | 1.028 ± 0.008
GGGCGAGTAT | 1.016 ± 0.0029
GGGCGATGCA | 1.02 ± 0.028
GGGCGCCATA | 0.948 ± 0.015
GGGCGGAGCG | 0.999 ± 0.036
GGGCGGGATT | 1 ± 0.059
GGGCGGGCAG | 0.997 ± 0.026
GGGCGGGCGC | 1.06 ± 0.027
GGGCGTTATG | 1.0238 ± 0.00033
GGGCTAAAGG | 1.04 ± 0.03

Sequence | switch fluorescence ratio
GGGCTAAATC | 1.01 ± 0.06
GGGCTAACCT | 1.32 ± 0.043
GGGCTAATAA | 1.02 ± 0.039
GGGCTAATGT | 0.988 ± 0.047
GGGCTACTTG | 0.9881 ± 0.0021
GGGCTAGCCA | 0.979 ± 0.011
GGGCTATGTC | 1.01 ± 0.038
GGGCTATTTA | 1 ± 0.011
GGGCTCTAAA | 1 ± 0.018
GGGCTGCGGA | 0.976 ± 0.051
GGGCTGGACG | 1 ± 0.043
GGGCTGGATT | 1.01 ± 0.036
GGGCTGGGGA | 1.01 ± 0.033
GGGCTGGGGG | 1.01 ± 0.057
GGGCTGGGGT | 0.997 ± 0.038
GGGCTGTTTG | 0.95379 ± 2.9e-05
GGGCTTAGTG | 0.993 ± 0.0066
GGGCTTCCGT | 1.089 ± 0.0068
GGGCTTGGCG | 1.0275 ± 0.00013
GGGCTTGTGT | 0.993 ± 0.032
GGGCTTTGGC | 1 ± 0.025
GGGCTTTGTG | 1 ± 0.01
GGGGAAAAGT | 1.01 ± 0.029
GGGGAAAGTT | 0.988 ± 0.043
GGGGAACAGT | 0.979 ± 0.043

Sequence | switch fluorescence ratio
GGGGAAGGAA | 0.998 ± 0.027
GGGGAAGGAG | 0.977 ± 0.029
GGGGAAGGGT | 1.08 ± 0.23
GGGGAAGTAT | 0.985 ± 0.014
GGGGAATAGT | 1.26 ± 0.32
GGGGAATCCT | 1.036 ± 0.0077
GGGGAATCGT | 0.948 ± 0.027
GGGGACACAG | 0.979 ± 0.015
GGGGACCAAC | 1.03 ± 0.021
GGGGACCATT | 1.01 ± 0.035
GGGGACCTAG | 1.01 ± 0.015
GGGGACGATA | 1 ± 0.053
GGGGACGTCG | 0.9972 ± 0.0087
GGGGACTCTT | 0.977 ± 0.023
GGGGAGAGAA | 0.9855 ± 0.0071
GGGGAGAGAT | 0.999 ± 0.064
GGGGAGAGGC | 1.08 ± 0.11
GGGGAGAGGT | 1 ± 0.067
GGGGAGTGCT | 0.9872 ± 0.004
GGGGAGTGGG | 0.989 ± 0.051
GGGGATAGCG | 1 ± 0.018
GGGGATATCG | 1.03 ± 0.024
GGGGATGTCT | 1.03 ± 0.03
GGGGATTCAT | 0.986 ± 0.012
GGGGATTGAT | 1.02 ± 0.039

Sequence | switch fluorescence ratio
GGGGCAATAT | 3.69 ± 1.9
GGGGCAATGT | 1.22 ± 0.05
GGGGCAGCAG | 1.02 ± 0.031
GGGGCAGGGA | 0.98 ± 0.052
GGGGCATGTA | 1 ± 0.019
GGGGCATTTG | 0.9834 ± 0.0011
GGGGCCACGA | 1.01 ± 0.014
GGGGCCACTG | 1.02 ± 0.023
GGGGCCAGGG | 1.04 ± 0.054
GGGGCCCTTG | 0.97602 ± 9.7e-05
GGGGCCGTCA | 0.987 ± 0.031
GGGGCGAACG | 0.977 ± 0.04
GGGGCGAGGT | 0.9974 ± 0.0041
GGGGCGCCTC | 0.992 ± 0.03
GGGGCGGACT | 0.952 ± 0.04
GGGGCGGATG | 0.968 ± 0.013
GGGGCGGCTA | 0.984 ± 0.029
GGGGCGGGA | 1.08 ± 0.016
GGGGCTAGTT | 0.963 ± 0.02
GGGGCTATAT | 1.39 ± 0.62
GGGGCTGTGG | 0.9933 ± 0.0087
GGGGCTTGCA | 1.02 ± 0.019
GGGGCTTTTT | 1 ± 0.036
GGGGGAACTA | 0.989 ± 0.019
GGGGGAACTT | 0.977 ± 0.032

Sequence | switch fluorescence ratio
GGGGGAAGAC | 1.04 ± 0.053
GGGGGAAGCT | 1.03 ± 0.05
GGGGGAAGGT | 0.982 ± 0.032
GGGGGAAGTC | 1.01 ± 0.034
GGGGGAATAA | 1.54 ± 0.73
GGGGGAATAG | 1.05 ± 0.046
GGGGGAATGG | 1.11 ± 0.17
GGGGGAATGT | 0.983 ± 0.026
GGGGGAATTG | 1.02 ± 0.075
GGGGGAATTT | 0.993 ± 0.028
GGGGGACCGA | 1.02 ± 0.023
GGGGGACGCT | 0.972 ± 0.039
GGGGGACTTC | 1.005 ± 0.01
GGGGGAGAGA | 1.03 ± 0.064
GGGGGAGGAA | 0.978 ± 0.026
GGGGGAGGCA | 0.966 ± 0.032
GGGGGAGTGA | 0.972 ± 0.029
GGGGGAGTTC | 1.02 ± 0.014
GGGGGATACG | 0.997 ± 0.033
GGGGGATATA | 1.01 ± 0.021
GGGGGATCGG | 1.01 ± 0.022
GGGGGATGCG | 1 ± 0.048
GGGGGATGGA | 1.0016 ± 0.0002
GGGGGATTAA | 1 ± 0.017
GGGGGCACAG | 0.992 ± 0.012
